According to US20050266009A1 (SAVIENT PHARMACEUTICALS, published 2005):

Tests used:
GPIb on human platelets = molecular target: T1, GPIb on human platelets (human, UniProt P07359 17-652); assay: FACS on human platelets
T1 construct: whole, on cells; also called GPIbα; platelet GPIb

[1] = molecular target: T2, GPIb on guinea pig platelets (guinea pig); assay: FACS on guinea pig platelets
T2 construct: whole, on cells; also called guinea pig derived platelets

T1 sequence (P07359 17-652): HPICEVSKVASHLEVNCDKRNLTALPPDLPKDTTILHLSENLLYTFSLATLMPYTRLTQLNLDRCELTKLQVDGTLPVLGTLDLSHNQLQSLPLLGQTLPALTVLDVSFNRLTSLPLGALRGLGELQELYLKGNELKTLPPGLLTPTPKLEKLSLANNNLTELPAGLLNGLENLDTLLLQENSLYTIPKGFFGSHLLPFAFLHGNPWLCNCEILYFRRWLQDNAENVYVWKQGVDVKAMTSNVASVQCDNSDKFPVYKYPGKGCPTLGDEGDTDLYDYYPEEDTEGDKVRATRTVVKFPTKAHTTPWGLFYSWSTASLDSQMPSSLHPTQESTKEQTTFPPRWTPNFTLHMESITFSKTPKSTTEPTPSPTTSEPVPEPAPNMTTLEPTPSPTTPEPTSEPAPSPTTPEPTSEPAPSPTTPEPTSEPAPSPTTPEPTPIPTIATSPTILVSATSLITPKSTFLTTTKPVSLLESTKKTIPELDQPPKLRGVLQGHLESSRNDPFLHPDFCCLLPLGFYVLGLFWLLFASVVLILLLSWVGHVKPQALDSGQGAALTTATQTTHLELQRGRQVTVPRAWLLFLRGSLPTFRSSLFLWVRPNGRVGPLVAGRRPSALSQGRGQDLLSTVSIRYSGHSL

Binder | fold binding capacity relative to Y1 (GPIb on human platelets) [fold] | fold binding capacity relative to Y1 [1] [fold]
S1 scFv (scFv) EVQLVESGGGVVRPGGSLRLSCAASGFTFDLNPKVKHMWVRQAPGKGLEWVSGINWNGGSTGYADSVKGRFTISRDNAKNSLYLQMNSLRAEDTAVYYCARLRPPFLWGQGTLVTVSRGGGGSGGGGSGGGGSSELTQDPAVSVALGQTVRITCQGDSLRSYYASWYQQKPGQAPVLVIYGKNNRPSGIPDRFSGSSSGNTASLTITGAQAEDEADYYCNSRDSSGNHVVFGGGTKLTVLGAAAEQKLISEEDLNGAA | ~25 | 
D1 scFv (scFv) scFv: EVQLVESGGGVVRPGGSLRLSCAASGFTFDLNPKVKHMWVRQAPGKGLEWVSGINWNGGSTGYADSVKGRFTISRDNAKNSLYLQMNSLRAEDTAVYYCARLRSPFGWGQGTLVTVSRGGGGSGGGGSGGGGSSELTQDPAVSVALGQTVRITCQGDSLRSYYASWYQQKPGQAPVLVIYGKNNRPSGIPDRFSGSSSGNTASLTITGAQAEDEADYYCNSRDSSGNHVVFGGGTKLTVLGAAAEQKLISEEDLNGAA |  | ~25
